Source: paper PMC2941195

Substrate: C=CC(C)(C)c1[nH]c2cc(O)ccc2c1C[C@@H]1NC(=O)[C@@H]2CCCN2C1=O
Assay: Michaelis-Menten kinetics, HPLC product detection
Format: biochemical, Aspergillus sp. MF297-2
Conditions: normal prenylation at C-7 with DMAPP, 5 mM MgCl2, 50 mM Tris-Cl pH 7.5

B1: NotC (Aspergillus sp. MF297-2) (protein)
chain: MAIEEKSTSAEPGPYDALSRFSSLTGEDDRKWWEHTGPVLEKVMRDSGYELQSQYIYLYFVQQHLIPYLGKFPTRGQDDHRWQSNLTPYKVPYELSWNVSHKVVRISWDPVCDASGTENDAFNKKAIHDCTRQLAELDSTVILDRYRLLHKDLVITDEEEQQLLRRDVLPKSGRGQHNLAVDFQEGGITLKVYFYPYMKFLATGTPIEELFFSAIEKLRIADIDEAVGMLKCFLSPKSDDGKPSVDEKVFPSLLACDLCDPSKSRIKYYVIDKWVKWERIANLWTIGGRRLEDPYCAKGLALLKELWDLLAIPEGDRGDIWPNLVLGQPPTHLMTTIANYTLSPASRFPEPQVYLTTFGLNDMAIIDALTAFYERVGFTDMAKSYKKNVQSYYPNLDLNQTNWVHEAVSFSYRNSKPYLSVYYSPF
- Km: 2.64 ± 0.33 µM
- kcat: 1.01 ± 0.0317 s⁻¹
